Results reported in patent publication US20250277029A1 (Amgen, published 2025).

Target: human CB1 on stably transfected CB1 CHO cells (human, UniProt P21554 1-472)
Test: cell-based or functional assay

Chain of human CB1 on stably transfected CB1 CHO cells (P21554 whole entry): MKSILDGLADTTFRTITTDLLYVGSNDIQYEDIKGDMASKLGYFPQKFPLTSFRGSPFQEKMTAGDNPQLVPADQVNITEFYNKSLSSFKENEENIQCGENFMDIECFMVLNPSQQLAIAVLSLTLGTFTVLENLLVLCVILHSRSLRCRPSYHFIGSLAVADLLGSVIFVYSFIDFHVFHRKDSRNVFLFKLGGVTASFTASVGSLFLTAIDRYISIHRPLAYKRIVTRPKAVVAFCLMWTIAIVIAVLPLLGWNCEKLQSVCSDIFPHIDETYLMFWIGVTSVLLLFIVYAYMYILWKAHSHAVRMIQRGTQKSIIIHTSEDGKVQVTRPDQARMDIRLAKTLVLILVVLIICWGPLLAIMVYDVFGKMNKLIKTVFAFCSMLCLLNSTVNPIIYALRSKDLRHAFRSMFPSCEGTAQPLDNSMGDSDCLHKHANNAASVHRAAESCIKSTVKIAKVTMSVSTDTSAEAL

Binder	IC50 (nM, n = 4), antagonist activity, TR-FRET cAMP assay
LIBC673965-1 (IgG1 SEFL2 mAb) (antibody, V domains shown) VH: QVQLQESGPGLVKPSQTLSLTCTVSGGSIRRGGDYWSWIRQHPGKGLEWIGHVYYTGQTAYNPSLRGRVRISVNTYKNQFSLKLSSVTAADTAVYYCARGYDTSGYSYYYYGLDVWGQGTTVTVSS VL: not shown	2.21 nM
LIBC674090-1 (IgG1 SEFL2 mAb) (antibody, V domains shown) VH: QVQLQESGPGLVKPSQTLSLTCTVSGGSIRRGGDYWSWIRQHPGKGLEWIGHIYYAGSTAYNPNFRGRVRISVNTYKNQFSLKLSSVTAADTAVYYCARGYDTSGYSYYYYGLDVWGQGTTVTVSS VL: DIVMTQSPLSLPVTPGEPASISCRSSQSLLHRSGYNYLDWYLQKPGQSPQLLIYQGSNRASGVPDRFSGSGSGTDFTLKISRVEAEDVGVYYCMQSLQTPRTFGQGTKVEIKR	1.76 nM
LIBC673972-1 (IgG1 SEFL2 mAb) (antibody, V domains shown) VH: QVQLQESGPGLVKPSQTLSLTCTVSGGSIRRGGDYWSWIRQHPGKGLEWIGHIYYTGQTAYNPNLRNRVRISVNTYKNQFSLKLSSVTAADTAVYYCARGYDASGYSYYYYGLDVWGQGTTVTVSS VL: not shown	2.43 nM
LIBC674229-1 (IgG1 SEFL2 mAb) (antibody, V domains shown) VH: QVQLQESGPGLVKPSQTLSLTCTVSGGSIRRGGDYWSWIRQHPGKGLEWIGHIYQTGQTKYNPSFKGRVRISVNTYKNQFSLKLSSVTAADTAVYYCARGYDVSGYSYYYYGMDVWGQGTTVTVSS VL: DIVMTQSPLSLPVTPGEPASISCRSSQSLLHRSGYNYLDWYLQKPGQSPQLLIYQGSNRASGVPDRFSGSGSGTDFTLKISRVEAEDVGVYYCMQSLQTPRTFGQGTKVEIKR	4.16 nM
LIBC673982-1 (IgG1 SEFL2 mAb) (antibody, V domains shown) VH: QVQLQESGPGLVKPSQTLSLTCTVSGGSIRRGGDYWSWIRQHPGKGLEWIGHIYYTGSTTYNPSFRGRVRISVNTYKNQFSLKLSSVTAADTAVYYCARDYDISGYSYYYYGMDVWGQGTTVTVSS VL: not shown	2.11 nM
LIBC674200-1 (IgG1 SEFL2 mAb) (antibody, V domains shown) VH: QVQLQESGPGLVKPSQTLSLTCTVSGGSIRRGGDYWSWIRQHPGKGLEWIGHVYYTGQTAYNPNFRNRVRISVNTYKNQFSLKLSSVTAADTAVYYCARGYDVSGYSYYYYGMDVWGQGTTVTVSS VL: DIVMTQSPLSLPVTPGEPASISCRSSQSLLHRSGYNYLDWYLQKPGQSPQLLIYLGSNRASGVPGRFSGSGSGTDFTLKISRVEAEDVGVYYCMQSLQTPRTFGQGTKVEIKR	2.39 nM
LIBC674200-1 (LC: G76D) (IgG1 SEFL2 mAb) (antibody, V domains shown) VH: QVQLQESGPGLVKPSQTLSLTCTVSGGSIRRGGDYWSWIRQHPGKGLEWIGHVYYTGQTAYNPNFRNRVRISVNTYKNQFSLKLSSVTAADTAVYYCARGYDVSGYSYYYYGMDVWGQGTTVTVSS VL: not shown	2.23 nM
LIBC680562-1 (IgG1 SEFL2 mAb) (antibody, V domains shown) VH: QVQLQESGPGLVKPSQTLSLTCTVSGGSIRRGGDYWAWIRQHPGKGLEWIGHIYQTGSTNYNPRFKGRATISVNTYKNQFSLKLSSVTAADTAVYYCARNYDTLTGYSYYYYGMDVWGQGTTVTVSS VL: DIQMTQSPSSLSASVGDRVTITCRASQSISSYLNWYQQKPGKAPKLLIYSARRLSSGVPSRFSGSGSGTDFTLTISSLQPEDFATYYCQQYAKSPITFGGGTKVEIKR	0.71 nM
LIBC680800-1 (IgG1 SEFL2 mAb) (antibody, V domains shown) VH: QVQLQESGPGLVKPSQTLSLTCTVSGGSIRRGGDYWAWIRQHPGKGLEWIGHIYQTGSTNYNPRFKGRATISVNTYKNQFSLKLSSVTAADTAVYYCARNYDTLTGYSYYYYGMDVWGQGTTVTVSS VL: DIQMTQSPSSLSASVGDRVTITCRASQSISSYLNWYQQKPGKAPKLLIYSARALSSGVPSRFSGSGSGTDFTLTISSLQPEDFATYYCQQYRKFPLTFGGGTKVEIKR	1.57 nM
LIBC681737-1(LC:P12S) (IgG1 SEFL2 mAb) (antibody, V domains shown) VH: QVQLQESGPGLVKPSQTLSLTCTVSGGSIRRGGDYWAWIRQHPGKGLEWIGHVYYTGSTNYNPRFKDRATISVNTYKNQFSLKLSSVTAADTAVYYCARNYDTVTGYSYYYYGMDVWGQGTTVTVSS VL: DIQMTQSPSSLSASVGDRVTITCRASQSISSYLNWYQQKPGKAPKLLIYSARRLASGVPSRFSGSGSGTDFTLTISSLQPEDFATYYCQQYYHPPITFGGGTKVEIKR	0.55 nM
LIBC680773-1 (IgG1 SEFL2 mAb) (antibody, V domains shown) VH: QVQLQESGPGLVKPSQTLSLTCTVSGGSIRRGGDYWAWIRQHPGKGLEWIGHVYYTGSTNYNPRFKDRATISVNTYKNQFSLKLSSVTAADTAVYYCARNYDTVTGYSYYYYGMDVWGQGTTVTVSS VL: DIQMTQSPSSLSASVGDRVTITCRASQSISSYLNWYQQKPGKAPKLLIYKARLLSSGVPSRFSGSGSGTDFTLTISSLQPEDFATYYCQQYSRLPLTFGGGTKVEIKR	0.74 nM
LIBC680812-1 (IgG1 SEFL2 mAb) (antibody, V domains shown) VH: QVQLQESGPGLVKPSQTLSLTCTVSGGSIRRGGDYWGWIRQHPGKGLEWIGHVYQTGSTKYNPSFKDRATISVNTYKNQFSLKLSSVTAADTAVYYCARNYDTLTGYSYYYYGMDVWGQGTTVTVSS VL: DIQMTQSPSSLSASVGDRVTITCRASQSISSYLNWYQQKPGKAPKLLIYSARRLSSGVPSRFSGSGSGTDFTLTISSLQPEDFATYYCQQYRSYPITFGGGTKVEIKR	0.68 nM
LIBC681594-1 (IgG1 SEFL2 mAb) (antibody, V domains shown) VH: QVQLQESGPGLVKPSQTLSLTCTVSGGSIRRGGDYWAWIRQHPGKGLEWIGHIYQTGSTNYNPRFKGRATISVNTYKNQFSLKLSSVTAADTAVYYCARNYDTLTGYSYYYYGMDVWGQGTTVTVSS VL: DIQMTQSPSSLSASVGDRVTITCRASQSISSYLNWYQQKPGKAPKLLIYKARKLSSGVPSRFSGSGSGTDFTLTISSLQPEDFATYYCQQFGSMPLTFGGGTKVEIKR	1.24 nM
LIBC681593-1 (IgG1 SEFL2 mAb) (antibody, V domains shown) VH: QVQLQESGPGLVKPSQTLSLTCTVSGGSIRRGGDYWAWIRQHPGKGLEWIGHIYQTGSTNYNPRFKGRATISVNTYKNQFSLKLSSVTAADTAVYYCARNYDTLTGYSYYYYGMDVWGQGTTVTVSS VL: DIQMTQSPSSLSASVGDRVTITCRASQSISSYLNWYQQKPGKAPKLLIYNARRLGSGVPSRFSGSGSGTDFTLTISSLQPEDFATYYCQQYRSSPVTFGGGTKVEIKR	0.61 nM
LIBC680574-1 (IgG1 SEFL2 mAb) (antibody, V domains shown) VH: QVQLQESGPGLVKPSQTLSLTCTVSGGSIRRGGDYWAWIRQHPGKGLEWIGHVYYTGSTKYNPSFKDRATISVNTYKNQFSLKLSSVTAADTAVYYCARNYDTLTGYSYYYYGMDVWGQGTTVTVSS VL: DIQMTQSPSSLSASVGDRVTITCRASQSISSYLNWYQQKPGKAPKLLIYGARRLGSGVPSRFSGSGSGTDFTLTISSLQPEDFATYYCQQYSSLPVTFGGGTKVEIKR	0.75 nM
LIBC528116-1 + VK1 germline fix(es) (IgG1 SEFL2 mAb) (antibody, V domains shown) VH: QVQLQESGPGLVKPSQTLSLTCTVSGGSIRRGGDYWAWIRQHPGKGLEWIGHVYYTGSTNYNPRFKDRATISVNTYKNQFSLKLSSVTAADTAVYYCARNYDTVTGYSYYYYGMDVWGQGTTVTVSS VL: DIQLTQSPSTLSASVGDRVTITCRASQSISNYLNWYQQKPGKAPKLLIYAASSLHSGVPSRFSGSGSGTDFTLTISSLQPEDFASYYCQQYQSYPLTFGQGTKVEIKR	2.02 nM
10D10 (antibody, V domains shown) VH: QVQLQESGPGLVKPSQTLSLTCTVSGGSIRRGGDYWSWIRQHPGKGLEWIGYIYYSGSTNYNPSLKSRATISVDTSKNQFSLKLSSVTAADTAVYYCARDYDILTGYSYYYYGMDVWGQGTTVTVSS VL: not shown	347 nM

Target: T1, GFP-fused huCB1-SMALP (human CB1 in styrene maleic acid lipoparticles) (human, UniProt P21554 1-472)
T1 construct: Prepared as in Luna V. et al. 2018; also called huCB1-GFP-SMALP; wtCB1-SMALP; not shown: GFP fusion
Test: flow cytometry, yeast-displayed IgG, GFP MFI

T1 sequence (P21554 whole entry, the tested form may be a part): as the sequence (P21554 whole entry) above

Binder	100 nM huCB1-SMALP binding (normalized to 10D10)
LIBC523596-1 (antibody, V domains shown) VH: QVQLQESGPGLVKPSQTLSLTCTVSGGSIRRGGDYWSWIRQHPGKGLEWIGHVYQSGQTAYNPNFEDRATISVNTYKNQFSLKLSSVTAADTAVYYCAREYDVVSGYSYYYYGMDVWGQGTTVTVSS VL: DIVMTQSPLSLPVTPGEPASISCRSSQSLLTSSGYNYVDWYLQKPGQSPQLLIYQGSNRASGVPDRFSGSGSGTDFTLKISRVEAEDVGVYYCMQAVKIPRTFGQGTKVEIKR	4.19 fold
LIBC523844-1 (antibody, V domains shown) VH: QVQLQESGPGLVKPSQTLSLTCTVSGGSIRRGGDYWSWIRQHPGKGLEWIGHVYYTGSTKYNPSFKDRATISVNTYKNQFSLKLSSVTAADTAVYYCARDYDILTGYSYYYYGMDVWGQGTTVTVSS VL: DIVMTQSPLSLPVTPGEPASISCRSSQSLLSSSGANYVDWYLQKPGQSPQLLIYQGSNRASGVPDRFSGSGSGTDFTLKISRVEAEDVGVYYCRQARALPRTFGQGTKVEIKR	6.69 fold

Target: T1, GFP-fused huCB1-SMALP (human CB1 in …)
Test: flow cytometry, yeast-displayed IgG, GFP MFI
Remark: another data set of the same source

Binder	100 nM huCB1-GFP-SMALP binding (normalized to 10D10N35Y)
LIBC528148-1 (antibody, V domains shown) VH: QVQLQESGPGLVKPSQTLSLTCTVSGGSIRRGGDYWSWIRQHPGKGLEWIGHIYQSGQTKYNPKLKGRATISVDTYKNQFSLKLSSVTAADTAVYYCARDYDILTGYSYYYYGMDVWGQGTTVTVSS VL: DIQLTQSPSTLSASVGDRVTITCRASQSISNYLNWYQQKPGKAPKLLIYAASSLHSGVPSRFSGSGSGTDFTLTISSLQPEDFASYYCQQYQSYPLTFGQGTKVEIKR	3.38 fold

Target: T2, His-tagged huCB1-ND (human CB1 in nanodisc) (human)
T2 construct: CB1 construct of Cell 167(3) (2016) 750-762 expressed in Sf9 cells; POPC:MSP1D1:CB1 480:8:1; also called CB1-nanodisc; huCB1-Nanodisc; not shown: histidine purification tag
Test: flow cytometry, yeast-displayed IgG, binding/display ratio

T2 sequence (P21554 99-414): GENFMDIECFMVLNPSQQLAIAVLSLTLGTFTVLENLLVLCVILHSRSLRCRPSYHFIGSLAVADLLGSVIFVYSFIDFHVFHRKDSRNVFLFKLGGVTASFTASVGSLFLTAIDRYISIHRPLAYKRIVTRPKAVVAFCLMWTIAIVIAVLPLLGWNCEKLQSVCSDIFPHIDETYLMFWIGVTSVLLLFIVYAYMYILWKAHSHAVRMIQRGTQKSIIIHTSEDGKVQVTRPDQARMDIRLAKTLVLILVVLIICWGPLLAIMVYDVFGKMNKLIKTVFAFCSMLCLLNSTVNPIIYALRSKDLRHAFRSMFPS

Binder	relative binding to 0.2 nM huCB1-ND (relative to 10D10N35Y)
LIBC523844-1 (antibody, V domains shown) VH: QVQLQESGPGLVKPSQTLSLTCTVSGGSIRRGGDYWSWIRQHPGKGLEWIGHVYYTGSTKYNPSFKDRATISVNTYKNQFSLKLSSVTAADTAVYYCARDYDILTGYSYYYYGMDVWGQGTTVTVSS VL: DIVMTQSPLSLPVTPGEPASISCRSSQSLLSSSGANYVDWYLQKPGQSPQLLIYQGSNRASGVPDRFSGSGSGTDFTLKISRVEAEDVGVYYCRQARALPRTFGQGTKVEIKR	3.78 fold

Target: T2, His-tagged huCB1-ND (human CB1 in …)
Test: flow cytometry, yeast-displayed IgG, huCB1-ND over empty-ND

Binder	specific huCB1 binding (CB1 ND/Empty ND ratio)
LIBC523844-1 (antibody, V domains shown) VH: QVQLQESGPGLVKPSQTLSLTCTVSGGSIRRGGDYWSWIRQHPGKGLEWIGHVYYTGSTKYNPSFKDRATISVNTYKNQFSLKLSSVTAADTAVYYCARDYDILTGYSYYYYGMDVWGQGTTVTVSS VL: DIVMTQSPLSLPVTPGEPASISCRSSQSLLSSSGANYVDWYLQKPGQSPQLLIYQGSNRASGVPDRFSGSGSGTDFTLKISRVEAEDVGVYYCRQARALPRTFGQGTKVEIKR	8.58 ratio
